Data: publication PMC12009402 (Scientific Reports, 2025)

Molecular target: the molecule itself
Assay: AUC

B1: hCCL5-K25S (ligand)
chain: SPYSSDTTPCCFAYIARPLPRAHISEYFYTSGKCSNPAVVFVTRKNRQVCANPEKKWVREYINSLEMS
  stoichiometry N: ~200
